From publication PMC11329700, “Dynamin 1xA interacts with Endophilin A1 via its spliced long C-terminus for ultrafast endocytosis” (The EMBO Journal, 2024)

B4: His-tagged mouse Endophilin A1 SH3 domain (domain or fragment)
chain: not shown
notes: Endophilin A1, mouse, SH3 domain; The methods describe only a GST-Endophilin A1-SH3 construct (mouse, amino acids 292-352); the His-tagged construct of the ELISA is not described; also called His-tagged mouse Endophilin-SH3 domain

Experiments:
GST-dyn1xA-PRR R838A = target: T1, GST-dyn1xA-PRR R838A (rat, UniProt P21575 746-864, R838A); experiment: pull-down; GST fusion proteins on GSH-sepharose beads incubated with pre-cleared rat brain synaptosomal lysate (20 mM Tris pH 7.4, 150 mM NaCl, 1% Triton X-100, 1 mM EDTA, 1 mM EGTA) at 4 °C for 1 h; bound proteins by Coomassie stain or Western blot (some blots quantified by densitometry); conditions: one partner purified
T1 construct: also called R838A (Dyn1xA-PRR); source: E. coli JM109; GST fusion on GSH-sepharose beads
T1 sequence (looked up): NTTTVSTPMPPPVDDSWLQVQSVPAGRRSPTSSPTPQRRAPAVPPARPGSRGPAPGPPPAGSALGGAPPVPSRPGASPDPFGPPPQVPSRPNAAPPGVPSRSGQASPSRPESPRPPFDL

[1] = target: B4; experiment: ELISA; His-tagged mouse Endophilin A1 SH3 domain coated onto a 96-well plate, overlaid with increasing concentrations of GST-tagged Dyn1-PRR peptides; two experiments with four replicates each; conditions: both partners purified
[2] = target: T2, GST-Dyn1xA-PRR (dynamin 1xA proline-rich region, amino acids 746-864) (rat, UniProt P21575 746-864); experiment: as above; conditions: both partners purified
T2 construct: also called full-length Dyn1xA-PRR; source: E. coli JM109; GST fusion on GSH-sepharose beads (pull-down), GST-tagged in solution (ELISA)
T2 sequence (looked up): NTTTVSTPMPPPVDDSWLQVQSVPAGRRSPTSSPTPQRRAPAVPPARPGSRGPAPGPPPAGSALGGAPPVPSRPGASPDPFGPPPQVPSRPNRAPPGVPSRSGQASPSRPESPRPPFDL

[3] = target: T3, Dyn1xA-PRR 746-864 (GST tag removed) (rat, UniProt P21575 746-864); experiment: SEC-MALS; Superdex 75 10/300 GL, 20 mM HEPES, 100 mM NaCl, 1 mM DTT, 1 mM PMSF, pH 7.2; complex at 0.5 mg and diluted to one third (0.167 mg); conditions: both partners purified
T3 construct: For SEC-MALS the removal is surmised from the predicted 19.4 kDa of the 1:1 complex; source: E. coli, 15N- or 15N,13C-labelled for NMR, GST cleaved, purified by gel filtration
T3 sequence (looked up): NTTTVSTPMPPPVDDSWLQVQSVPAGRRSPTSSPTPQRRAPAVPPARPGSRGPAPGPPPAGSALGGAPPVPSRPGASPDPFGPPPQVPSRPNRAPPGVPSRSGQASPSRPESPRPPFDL

B1: Amphiphysin 1 (natural protein, UniProt O08838 1-683, looked up)
chain: MADIKTGIFAKNVQKRLNRAQEKVLQKLGKADETKDEQFEEYVQNFKRQEAEGTRLQRELRGYLAAIKGMQEASMKLTESLHEVYEPDWYGREDVKMVGEKCDVLWEDFHQKLVDGSLLTLDTYLGQFPDIKNRIAKRSRKLVDYDSARHHLEALQSSKRKDESRISKAEEEFQKAQKVFEEFNVDLQEELPSLWSRRVGFYVNTFKNVSSLEAKFHKEIAVLCHKLYEVMTKLGDQHADKAFSIQGAPSDSGPLRIAKTPSPPEEASPLPSPTASPNHTLAPASPAPVRPRSPSQTRKGPPVPPLPKVTPTKELQQENIINFFEDNFVPEINVTTPSQNEVLEVKKEETLLDLDFDPFKPDVTPAGSAAATHSPMSQTLPWDLWTTSTDLVQPASGGSFNDFTQPQDTSLFTMQTDQNMAETEQALPTEPQAEEPPTTAAAPTAGLDLGLEMEEPKEEAAIPPGTDAGETVGTEGSTGEEAEAEKAALPAGEGESPEGAKIDVESTELASSESPQAAELEAGAPQEKVIPSVVIEPASNHEGEEHQETTTGTETREATEDVAPQGPAGEKQELATEPTPLDSQAATPAPAGAVDASLSAGDAAQELPPGFLYKVETLHDFEAANSDELTLQRGDVVLVVPSDSEADQDAGWLVGVKESDWLQYRDLATYKGLFPENFTRHLE
notes: Amphiphysin 1, rat, endogenous in synaptosomes, detected by Western blot; also called Amphiphysin I; source: endogenous, rat brain synaptosomal lysate
- binding relative to wild-type Dyn1xA-PRR (median) (GST-dyn1xA-PRR R838A): 14.2%

B2: GST-Dyn1xA-PRR 806-864 (domain or fragment, rat, UniProt P21575 806-864, looked up)
chain: GSALGGAPPVPSRPGASPDPFGPPPQVPSRPNRAPPGVPSRSGQASPSRPESPRPPFDL
notes: source: E. coli JM109; GST fusion on GSH-sepharose beads (pull-down), GST-tagged in solution (ELISA)
- fold difference in affinity from xA 746-864 [1]: < 2 fold
- fold higher affinity than xA 751-798 [1]: 5 fold

B3: Endophilin A1 (natural protein, UniProt O35179 1-352, looked up)
chain: MSVAGLKKQFHKATQKVSEKVGGAEGTKLDDDFKEMERKVDVTSRAVMEIMTKTIEYLQPNPASRAKLSMINTMSKIRGQEKGPGYPQAEALLAEAMLKFGRELGDDCNFGPALGEVGEAMRELSEVKDSLDMEVKQNFIDPLQNLHDKDLREIQHHLKKLEGRRLDFDYKKKRQGKIPDEELRQALEKFDESKEIAESSMFNLLEMDIEQVSQLSALVQAQLEYHKQAVQILQQVTVRLEERIRQASSQPRREYQPKPRMSLEFATGDGTQPNGGLSHTGTPKPAGVQMDQPCCRALYDFEPENEGELGFKEGDIITLTNQIDENWYEGMLHGQSGFFPINYVEILVALPH
notes: Endophilin-A1, rat, endogenous full-length protein of nerve terminals; The Western blots are probed with antibodies to Endophilin A; also called 40 kDa protein; source: endogenous, rat brain synaptosomal lysate
- binding relative to wild-type Dyn1xA-PRR (median) (GST-dyn1xA-PRR R838A): 68.2%

Binder: B4
- Kd [2]: 0.044 µM

B5: Endophilin A1 SH3 domain (GST tag removed) (domain or fragment)
chain: not shown
notes: Endophilin A1, mouse, SH3 domain, amino acids 292-352 (methods); the results print residues D291-H352; Cleavage is stated for the NMR experiments; for SEC-MALS it is surmised from the predicted 19.4 kDa of the 1:1 complex; also called endophilin SH3; Endophilin A SH3; source: E. coli JM109, GST fusion, GST cleaved, purified by gel filtration
- stoichiometry N [3]: 1
